Test results as given in patent US20040018971A1 (published 2004).
Read-outs that look alike come from different tables or passages of the source.

Tests used:
[1] = molecular target: T1, HLA-DRB1*1501 (human); assay: competition with 125I-labelled standard peptide, purified HLA-DR, gel filtration
T1 construct: purified MHC class II molecule; also called DR2w2β1

[2] = molecular target: T2, HLA-DRB1*0101 (human); assay: as above
T2 construct: purified MHC class II molecule; also called DR1

[3] = molecular target: T3, HLA-DRB1*0401 (human); assay: as above
T3 construct: purified MHC class II molecule; also called DR4w4

[4] = molecular target: T4, HLA-DRB1*1302 (human); assay: as above
T4 construct: purified MHC class II molecule; also called DR6w19

[5] = molecular target: T5, HLA-DRB1*0802 (human); assay: as above
T5 construct: purified MHC class II molecule; also called DR8w2

[6] = molecular target: T6, HLA-DRB5*0101 (human); assay: as above
T6 construct: purified MHC class II molecule; also called DR2w2β2

[7] = molecular target: T7, HLA-DRB1*0301 (human); assay: competition with 125I-labeled standard peptide, purified HLA-DR, gel filtration
T7 construct: also called DR3

[8] = molecular target: T8, HLA-A*0301 (human); assay: competition with 125I-labelled standard peptide for purified HLA, gel filtration
T8 construct: also called A3

[9] = molecular target: T9, HLA-A*1101 (human); assay: as above
T9 construct: The construct is not described

[10] = molecular target: T10, HLA-A*3101 (human); assay: as above
T10 construct: The construct is not described

[11] = molecular target: T11, HLA-A*6801 (human); assay: as above
T11 construct: The construct is not described

[12] = molecular target: T12, HLA-A*3301 (human); assay: as above
T12 construct: The construct is not described

[13] = molecular target: HLA-A*6801 (purified HLA class I molecule) (human); assay: inhibition of 125I probe peptide binding to purified HLA; ratio to standard peptide
[14] = molecular target: T13, HLA-A*0301 (purified HLA class I molecule) (human); assay: as above
T13 construct: also called A3

[15] = molecular target: HLA-A*3101 (purified HLA class I molecule) (human); assay: as above
[16] = molecular target: HLA-A*1101 (purified HLA class I molecule) (human); assay: as above
[17] = molecular target: HLA-A*3301 (purified HLA class I molecule) (human); assay: inhibition of 125I probe peptide binding to purified HLA; ratio to standard peptide; minus sign not explained
[18] = molecular target: T14, HLA-DRB1*0701 (human); assay: inhibition of 125I probe peptide binding to purified HLA-DR, gel filtration
T14 construct: Purified HLA molecule; also called DR7

[19] = molecular target: T15, HLA-DR7 (DRB1*0701) (human); assay: competition binding assay, purified HLA, 125I-labelled probe peptide, gel filtration
T15 construct: purified HLA class II molecule

[20] = molecular target: T16, HLA-DR1 (DRB1*0101) (human); assay: as above
T16 construct: purified HLA class II molecule

[21] = molecular target: T17, HLA-DR4w4 (DRB1*0401) (human); assay: as above
T17 construct: purified HLA class II molecule

[22] = molecular target: T18, HLA-A*0201 (human); assay: inhibition of 125I-labeled probe peptide binding to purified HLA, gel filtration; relative to standard peptide
T18 construct: the construct is not described; also called HLA-A2.1

[23] = molecular target: HLA-A*0301 (human); assay: competition with 125I-labelled standard peptide for purified HLA; gel filtration
[24] = molecular target: HLA-A*6801 (human); assay: as above
[25] = molecular target: HLA-A*3101 (human); assay: as above
[26] = molecular target: HLA-A*1101 (human); assay: as above
[27] = molecular target: HLA-A*3301 (human); assay: as above
[28] = molecular target: HLA-DR3 (human); assay: competitive inhibition of 125I-labeled probe peptide binding to purified HLA-DR3
[29] = molecular target: T19, HLA-DRB1*0802 (human); assay: inhibition of 125I probe peptide binding to purified HLA-DR, gel filtration
T19 construct: Purified HLA molecule; also called DR8w2

[30] = molecular target: T20, HLA-DRB1*1302 (human); assay: as above
T20 construct: Purified HLA molecule; also called DR6w19

[31] = molecular target: T21, HLA-DRB1*1501 (human); assay: as above
T21 construct: Purified HLA molecule; also called DR2w2β1

[32] = molecular target: T22, HLA-DRB5*0101 (human); assay: as above
T22 construct: Purified HLA molecule; also called DR2w2β2

[33] = molecular target: T23, HLA-DRB1*0401 (human); assay: as above
T23 construct: Purified HLA molecule; also called DR4w4

[34] = molecular target: T24, HLA-DRB1*0101 (human); assay: as above
T24 construct: Purified HLA molecule; also called DR1

[35] = molecular target: T25, HLA-DRB1*0301 (human); assay: competition with 125I-labelled standard peptide, purified HLA-DR, gel filtration
T25 construct: purified MHC class II molecule; also called DR3

[36] = molecular target: T25, HLA-DRB1*0301; assay: as above; remark: listed apart in the source
[37] = molecular target: T24, HLA-DRB1*0101; assay: inhibition of 125I probe peptide binding to purified HLA-DR, gel filtration; remark: listed apart in the source
[38] = molecular target: T26, HLA-DRB1*0101 (human); assay: competition with 125I probe peptide, purified HLA
T26 construct: also called DR1

[39] = molecular target: T27, HLA-DRB1*0701 (human); assay: competition with 125I probe peptide, purified HLA
T27 construct: also called DR7

[40] = molecular target: HLA-A*0206 (purified HLA class I molecule) (human); assay: competition with 125I-labelled standard peptide for purified HLA, gel filtration
[41] = molecular target: HLA-A*0202 (purified HLA class I molecule) (human); assay: as above
[42] = molecular target: T28, HLA-A*0201 (purified HLA class I molecule) (human); assay: as above
T28 construct: also called HLA-A2.1

[43] = molecular target: HLA-A*0203 (purified HLA class I molecule) (human); assay: as above
[44] = molecular target: HLA-A*6802 (purified HLA class I molecule) (human); assay: as above

DEAYVMAGVGSPYVS
IC50 [1]: 3140 nM | IC50 [2]: 100 nM | IC50 [3]: 196 nM | IC50 [4]: 1750 nM | IC50 [5]: 860 nM | IC50 [6]: 833 nM

B1: HER2/neu DR supermotif exemplary peptide KGPLPTDCCHEQCAA (position 228) (peptide)
peptide: KGPLPTDCCHEQCAA
notes: synthetic 15-mer; also called Her2/neu.228
relative binding ratio [7]: -0.0027 ratio (standard IC50 / test IC50)

B2: HER2/neu peptide, position 322, 9 amino acids (peptide)
peptide: VTAEDGTQR
notes: Synthetic peptide; also called Her2/neu.322 (9-mer)
relative binding ratio [8]: 0.0002 ratio (IC50 of standard peptide / IC50 of test peptide) | relative binding ratio [9]: 0.014 ratio (IC50 of standard peptide / IC50 of test peptide) | relative binding ratio [10]: 0.0011 ratio (IC50 of standard peptide / IC50 of test peptide) | relative binding ratio [11]: 0.1 ratio (IC50 of standard peptide / IC50 of test peptide) | relative binding ratio [12]: 0.0037 ratio (IC50 of standard peptide / IC50 of test peptide)

GSGAFGTVYK (also called Her2/neu.727 (10-mer)) [HER2/neu peptide, position 727, 10 amino acids]
relative binding ratio [13]: 0.0012 ratio (IC50 standard / IC50 test) | relative binding ratio [14]: 0.066 ratio (IC50 standard / IC50 test) | relative binding ratio [15]: 0.0014 ratio (IC50 standard / IC50 test) | relative binding ratio [16]: 0.13 ratio (IC50 standard / IC50 test) | relative binding ratio [17]: -0.0013 ratio (IC50 standard / IC50 test)

QPPICTIDVYMIMVK (Synthetic peptide)
IC50 [18]: 250 nM

QGFFCPDPAPGAGGM (also called Her2/neu.1028) [HER2/neu peptide QGFFCPDPAPGAGGM (position 1028)]
relative binding ratio [19]: -0.0011 ratio to standard peptide | relative binding ratio [20]: -0.0005 ratio to standard peptide | relative binding ratio [21]: 0.023 ratio to standard peptide

B3: HER2/neu DR supermotif exemplary peptide PSGVKPDLSYMPIWK (position 601) (peptide)
peptide: PSGVKPDLSYMPIWK
notes: synthetic 15-mer; also called Her2/neu.601
relative binding ratio [7]: -0.0027 ratio (standard IC50 / test IC50)

YVSRLLGICL (Synthetic peptide) [HER2/neu peptide, position 781, 10 amino acids]
relative binding ratio [22]: 0.0004 ratio (IC50 of standard peptide / IC50 of test peptide)

AVPLDSTFYR [Her2/neu.997.V2]
IC50 [23]: > 110000 nM | IC50 [24]: 73 nM | IC50 [25]: 30000 nM | IC50 [26]: 88 nM

AVPLDSTFYK [Her2/neU.997.V2K10]
IC50 [23]: 550 nM | IC50 [24]: 229 nM | IC50 [25]: 1500 nM | IC50 [26]: 33 nM | IC50 [27]: 22300 nM

YVLIAHNQV (Synthetic peptide) [HER2/neu peptide, position 83, 9 amino acids]
relative binding ratio [22]: 0.0005 ratio (IC50 of standard peptide / IC50 of test peptide)

LVKSPNHVR [Her2/neu.852.R9]
IC50 [23]: 7860 nM | IC50 [24]: 50 nM | IC50 [25]: 198 nM | IC50 [27]: 107 nM

ARLLDIDETEYHADG [Her2/neu.867, listing 1 of 2 here]
IC50 [28]: < 1000 nM

DEAYVMAGVGSPYVS (Synthetic peptide)
IC50 [29]: 860 nM | IC50 [30]: 1750 nM | IC50 [31]: 3140 nM | IC50 [32]: 833 nM | IC50 [33]: 196 nM | IC50 [34]: 100 nM

KVPIKWMALESILRR (Synthetic peptide) [Her2/neu.883]
IC50 [31]: 3.4 nM | IC50 [34]: 2.3 nM

ARLLDIDETEYHADG [Her2/neu.867, listing 2 of 2 here]
IC50 [35]: 968 nM | IC50 [36]: 968 nM

QPDVRPQPPSPREGP (Synthetic peptide) [Her2/neu.1142]
IC50 [37]: 7140 nM

QMRILKETELRKVKV [Her2/neu.711]
IC50 [6]: 34 nM

TQLFEDNYALAVLDN [Her2/neu.105]
IC50 [38]: 94 nM | IC50 [39]: 1560 nM

B4: HER2/neu peptide, position 799, 9 amino acids (peptide)
peptide: QLMPYGCLL
notes: Synthetic peptide; also called Her2/neu.799
relative binding ratio (IC50 of standard peptide / IC50 of test peptide) [40]: 0.0052 ratio | relative binding ratio (IC50 of standard peptide / IC50 of test peptide) [41]: 0.0044 ratio | relative binding ratio (IC50 of standard peptide / IC50 of test peptide) [42]: 0.023 ratio | relative binding ratio (IC50 of standard peptide / IC50 of test peptide) [43]: 0.088 ratio | relative binding ratio (IC50 of standard peptide / IC50 of test peptide) [44]: 0.0031 ratio

QPPICTIDVYMIMVK
IC50 [39]: 250 nM
